Reference: article PMC2787765

Biological target: αB-crystallin triply substituted analog (serine residues 19, 45 and 59 mutated to aspartic acids) (UniProt P02511)
Test: back-scattering interferometry

| Substance | KD1 (high affinity mode) | KD2 (low affinity mode) | kf1 (forward rate, high affinity mode) | kf2 (forward rate, low affinity mode) | kr1 (reverse rate, high affinity mode) | reduction in magnitude of the steady-state BSI signal relative to T4L-L99A-A130S | reverse rate, low affinity mode (row printed as kr1) |
| --- | --- | --- | --- | --- | --- | --- | --- |
| T4 lysozyme D70N (from UniProt P00720 1-164) (enzyme) | 0.595 µM | 29.1 µM | 25500 M⁻¹ s⁻¹ | 2340 M⁻¹ s⁻¹ | 0.0152 s⁻¹ | 40% |  |
| T4 lysozyme L99A-A130S double mutant (from UniProt P00720 1-164) (enzyme) | 0.132 µM | 33 µM | 58500 M⁻¹ s⁻¹ | 2970 M⁻¹ s⁻¹ | 5.03e-06 s⁻¹ |  | 0.115 s⁻¹ |
